Like-named read-outs stand apart in the source and are kept apart here.
How the values were obtained:
Assay in all cases: native gel or EMSA
[1] = molecular target: PduA* (PduA with a C-terminal 23 residue extension) (Salmonella typhimurium LT2)
[2] = molecular target: PduA*(A63R) (Salmonella typhimurium LT2)
[3] = molecular target: PduA* (PduA with a C-terminal 23 residue extension) (Salmonella typhimurium LT2); remark: listed apart in the source

Molecule “PduA* (PduA with a C-terminal 23 residue extension) (natural protein)” has a stoichiometry N [1] of 3 hexamers.

Work on PduA*(A63R) (natural protein) yielded a stoichiometry N [2] of 3 hexamers.

B1: PduL (enzyme)
chain: MDKQQLETTVTKVLDEMRERPIPLGISNRHIHLCAEDYDRLFPNHPISEKKELLQPGQYAADQTVTLVGPKGQLKNVRLLGPLRSTSQVEISRTDARTLGIAAPLRMSGSIEGTPGVRLISPFAELDLASGVIVAQRHIHMSPLDALILRVSHGDKVSVAINGDERRLIFDNVAVRVSPDMRLEMHIDTDEANAAGADNPQAFATLVSPR
B1 was tested, and the stoichiometry N [3] was 1 and the stoichiometry N (PduL dimers per PduA trimer of hexamers) [3] was 3.

Source: doi:10.1101/2022.12.30.522206
